Data as given in patent US20250188153A1 (UNIVERSITY OF GEORGIA RESEARCH FOUNDATION, published 2025).

B1: MPV482 (antibody, V domains shown)
VH: EVQLVQSGGGVVQPGRSLRLSCAASGFTFSSFAMHWVRQAPGKGLEWVALISDDGNNKYHADSVKGRFTISRDSSKNTLYLQMNSLRGEDTAVYYCARDGSVVGAAAHCDHWGQGTLVTVSS
VL: SYELTQPPSVSVSPGQTARITCSGDALPNQCAYWYQQKPGLAPVLLIYKDKERPSGIPERFSGSISGTTVTLTISGVQAEDEADYYCQSSDSSSTVVFGGGTKLTVL
B2: MPV467 (antibody, V domains shown)
VH: EVQLVESGGGVVRPGTSLRVSCAAFDFNFRDYGMHWVRQAPGKGLEWVAGIWYDGSNKDYADSVKGRFTISRDNSQNTLYLQMNSLRVEDTAVYYCARDPRTHREGALSHFDSWGQGTLVTVSS
VL: PNELTQDPAVSVALGQTVRITCQGDSLRNYFAGWYQQKPGQAPLLVLYGENIRPSGIPDRFSGSSSGNTVSLTITGAQAEDEADYYCNSRDNSGNHWVFGGGTRLTVL
B3: MPV464 (antibody, V domains shown)
VH: QVQLQESGPGLVKPSQTLSLTCTVSGGSVRGGGDYWSWIRRPPGKGLEWIGHIYNSGTTFYNPSLKSRVTISIDTSKNQFSLKLRSVTAADTAVYYCGRVGSRATGLPDWIDPWGQGTLVTVSS
VL: SYELTQPPSVSVSPGQTATITCSGTNLGAKYSCWYQQKPGQSPVLVIFQDNKRASGIPARFSASTSGDTATLTISGTQVMDEADYFCQAWDSRTAVFGGGTTLTVL
B4: MPV483 (antibody, V domains shown)
VH: EVQLVQSGAELKKPGSSVKVSCKASGDTFSNYAISWVRQAPGQGLEWMGGIIPIYNTANYAQKFQGRVTLTADESTSTAYMELSSLRSEDTAVYYCARDVRNNWSVLRGARYYYYGMDVWGQGTTVTVSS
VL: DIVMTQTPFSLSASVGDRVTVTCRASQDISNSLAWFQQKPGKAPKSLIYAASSLQSGVPTRFSGGGSGTDFTLTISSLQPEDFATFYCLQYDSFPPTFGGGTKVEI
B5: MPV454 (antibody, V domains shown)
VH: EVQLVESGGGLVKPGGSLRLSCSTSGFVFSSYAMHWVRQAPGKGLEHVSAISSTGDNTHYADSVKGRFTISRDNSRGRLYLQMTSVRPEDAALYYCVKDLYSGRFYYFLDDWGQGTRIIVSS
VL: DIQVTQSPSSLSASVGDRVTISCRASQNISNYLNWFQQRPGKAPKLLIYVASTLQSGAPSRFSGSGSGTDFTLTITDLQPEDFATYYCQQSYNTPPITFGQGTRLEIK
B6: MPV491 (antibody, V domains shown)
VH: QVQLQESGPGLVKSSQTLSLTCTVSGGSISSVTSHWTWIRQHPGKGLEWIGYIFSSGTTYYSPSLRSRLTMSVDTSKNQFSLQLSSVTAADTAMYYCARGIYCGDSCYKGTDYWGRGTLVTVSS
VL: IRLMTQTPVTLPVTPGEPASISCRSSQSLLHSNGYNYLDWYLQKPGQSPQLLIYRGSTRASGVPDRFSGSGSGTEFTLKISRVEAEDVGVYYCMQGLQTPYTFGQGTKLESR
B7: MPV487 (antibody, V domains shown)
VH: EVQLLESGGGLVQPGRSLRLSCTASGFTFDDYAMHWVRQLPGKGLEWVSGISWNSDNIGYADSVKGRFTISRDNGKNSLYLQMNSLRAEDTAFYYCAKDVRIDYDLLIGHIDYWGPGTLVTVSS
VL: TQSPVTLSLSPGERATLSCRASQSFGGYCAWYQQKPGQSPRLLIYDASNRATGVPARFSGSGSGTDFTLTISSLEPEDSAVYFCQQRGNWPIFGQGTRLEI
B8: MPV414 (antibody, V domains shown)
VH: QVQLVQSGPEVKKPGSSVMVSCKTSGGNFNNFAISWVRQAPGQGLEWMGGIVPIFGTANYAQKSQDRVTITADPSSSTAYLQLSSLTSDDTAIYYCARDLGRSSNYYYYSVFESWGQGTLVTVSS
VL: DIVMTQSPATLSLSPGERATLSCRASQSVGDKLAWYQQKPGQAPRLLIYGASTRATDIPARFSGSGSGTEFTLTVSSLQPEDFAVYYCQQYENWPPITFGQGTRLEIK
B9: MPV485 (antibody, V domains shown)
V domain 1: EVQLQEPGPGLVKPSETLSLTCTVSGGSISSTNSFWGWVRQPPGKGLEWIGSIYYSGTTYYNSSLKSRVTISVDTSKNQFSLRLSSVTAADTAVYYCARQGLTSSWYDGSGLDVWG
V domain 2: SYELTQPPSVSVSPGQTASITCSGDKLGNKYACWYQQRPGQSPVLVIYQDTKRPSGIPERFSGSNSGNTATLTISGTQAMDEADYYCQAWDSNTVVFGGGTKLTVL
B10: MPV486 (antibody, V domains shown)
VH: EVQLVESGGHLVQSGGSLRLSCAASGFTFSNYILNWVRQAPGKGLEWISYITGGSSAIYYADSVKGRFTISRDDAKNSLYLQMNNLRAEDTAVYYCARSHGYDSSGYYYYFAMDVWGQGTTVTVSS
VL: QSVLTQPPSASGTPGQRVTISCSGSNSNIESNTVNWYQQIPGTAPKLLIYSDNRRPSGVPDRFSGSKSGTSASLAISGLQSEDEADYYCAAWDDSLIGYVFGTGTKVTV
B11: MPV481 (antibody, V domains shown)
VH: EVQLVQSGGGLVKPGGSLRLSCAASGLPFNNAWMNWVRQAPGKGLEWVGRIKSKIDGGTTEYAAPVKGRFTISRDDSENTLYLQMNSLRTEDTAVYYCTTEYYALLSGNYSDCWGQGTLVTVSS
VL: DIVMTQSPFSLSLSPGERATLSCRASQSIKRAYLGWYQQKPGQAPRLLIYGASNRATGIPDRFSGSGSGTDFTLTISRLEPEDFAVYYCQQYGDSPGGSFGQGTKLEIR
B12: MPV477 (antibody, V domains shown)
VH: EVQLVQSGAEVKKPGASVEVSCKTSGYTFTDYYLHWVRQAPGQGLEWMGWINPRSGGTKYGQKFQGRVTMTRDTSISTAYMDLRGLRSDDTAVYYCARAPLLTVYAVAHRSGENRFDPWGQGTVTVSS
VL: QPPSLSGAPGQTVTISCTGSGSNIGAGYDVNWYQCLPGTAPKLLMFDNSNRPSGVPDRFSGSRSGASASLAITGLQAEDEADYYCQSYDSGLSGWVFGGGTKLTVL
B13: MPV86 (antibody, V domains shown)
VH: QVQLVQSGAEVKKPGSSVKVSCKASGDTFNDVALSWVRQAPGQGLEWLGGIIPFFGTANYAQRFQDRVTITADASTSTAYLELGGLRSEDTAVYYCARGWSCRNITCFMMGYYFYIMDVWGQGTLVTVSS
VL: LSLSPGERATLSCRASQSVGNFLAWYQQKPGQTPRLLIQDASNRATGIPARFSGTGSGTDFTLTISSLEPEDFAVYYCQQRSNWPPTFGPGTKVDIK
B14: MPV478 (antibody, V domains shown)
VH: EVQLVQSGAEVKKPGASVKVSCNASGYTFTGYYIHWVRQAPGQGLEWMGWINPRSGGTNYAQKFQGRVTLTRDTSITTAYMDVTRLRPDDTAVYYCATTREGIVLMPRGRGDDALDTWGQGTTVIVSS
VL: DIVMTQSPVSLTVSLGERATINCKSSQSVLSTSNNENYLAWYQQKPGQPPNLLIYWASTRESGVPDRFSGSGSGTDFTLTISSLQAEDVAVYYCQQYFATPITFGPGTKVDVK
B15: MPV488 (antibody, V domains shown)
VH: EVQLVQSGFEVKKPGASVKVSCKASGYNFNNYGISWVRQAPGQGLEWMGWISAYTGNTNEAQKFQGRVSMTTDTSTSTAYMEVRSLRSDDTAVYYCARDIGSSMFYSYFYGMDVWGQGTTVIVSS
VL: SLSVSLGERATINCKSSESVLYNSNNENYLDWYQQKPGQPPKLLIYWASTRASGVPDRFSGSASGTDFTLTISSLQAEDVAVYYCQQYYSTPRTFGQGTKVEIK
B16: MPV489 (antibody, V domains shown)
VH: EVQLLESGGGLVQPGGSLRLSCAASKFTFNNYEMNWLRQAPGKGLEWVSSISSSGDTIHNADSVKGRFIISRDNAKNSLHLQMNGLRAEDTAVYYCARAGSGWAYDAFDIWGLGTMVTVSS
VL: LSASVGDRVTITCRASQSISSFLNWYQQKPGKAPKLLMYAASSLPVGVPSRFSGSGSGPEYTLTISNLQPEDFATYYCQQGYSSPPTFGGGTRLEVK
B17: MPV456 (antibody, V domains shown)
VH: QVQLQESGPGVVKPSGTLSLTCGVSGGSISSSYWWSWVRQPPGKGLEWIGEIYHSGSTNYNPSLKRRVTISVDKSKNQFSLKVTSVTAADTAVYYCARGPIQYYDILTEERVGYCDYWGQGTLVTVSS
VL: TLSASVGDRVTITCRASQSISSWLAWFQQKPGKAPKLLIYKTSSLESGVPSRFSGSGSGTEFTLTISSLQPDDFATYYCQEYNSYSRTFGQGTKVEIK

Tests used:
Assay in all cases: cell-based or functional assay
[1] = molecular target: T1, hMPV F protein of hMPV CAN/97-83 (genotype A) (human metapneumovirus, UniProt Q6WB98 19-539)
T1 sequence (Q6WB98 19-539): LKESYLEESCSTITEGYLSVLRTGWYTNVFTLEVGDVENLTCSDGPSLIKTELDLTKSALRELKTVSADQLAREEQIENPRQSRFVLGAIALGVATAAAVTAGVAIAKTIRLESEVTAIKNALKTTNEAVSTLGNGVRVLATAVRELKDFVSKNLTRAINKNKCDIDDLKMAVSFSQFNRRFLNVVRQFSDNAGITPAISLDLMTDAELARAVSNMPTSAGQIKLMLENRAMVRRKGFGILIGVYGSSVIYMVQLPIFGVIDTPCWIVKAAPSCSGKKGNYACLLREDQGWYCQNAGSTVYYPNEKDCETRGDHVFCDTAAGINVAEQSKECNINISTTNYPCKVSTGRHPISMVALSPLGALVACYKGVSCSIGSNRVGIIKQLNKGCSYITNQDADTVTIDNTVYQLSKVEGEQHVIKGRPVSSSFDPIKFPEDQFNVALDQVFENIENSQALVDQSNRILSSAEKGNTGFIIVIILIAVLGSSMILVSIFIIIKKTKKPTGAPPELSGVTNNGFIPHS

[2] = molecular target: T1, hMPV F protein of hMPV CAN/97-83 …; remark: listed apart in the source
[3] = molecular target: T2, hMPV F protein of hMPV TN/93-32 (genotype B) (human metapneumovirus)
[4] = molecular target: T2, hMPV F protein of hMPV TN/93-32 …; remark: listed apart in the source

Binder | neutralizing activity, plaque-reduction assay [1] | IC50, plaque-reduction neutralization of hMPV CAN/97-83 [2] | IC50, plaque-reduction neutralization of hMPV TN/93-32 [3] | neutralizing activity, plaque-reduction assay [4] | fold lower neutralization IC50 than against hMPV TN/93-32 [1]
B1 | < 20 ng/mL | 0.014 µg/mL | 0.047 µg/mL | – | –
B2 | < 20 ng/mL | 0.005 µg/mL | 0.0006 µg/mL | < 1 ng/mL | –
B3 | – | 0.14 µg/mL | 0.4 µg/mL | – | –
B4 | – | 0.032 µg/mL | 0.11 µg/mL | – | –
B5 | < 20 ng/mL | 0.002 µg/mL | 0.025 µg/mL | – | –
B6 | – | 5.7 µg/mL | 1.9 µg/mL | – | –
B7 | < 20 ng/mL | 0.003 µg/mL | 0.012 µg/mL | – | –
B8 | – | 0.044 µg/mL | 0.59 µg/mL | – | –
B9 | – | 0.091 µg/mL | 2.6 µg/mL | – | ≥ 20 fold
B10 | – | 0.51 µg/mL | 0.062 µg/mL | – | –
B11 | – | 0.096 µg/mL | 0.26 µg/mL | – | –
B12 | – | 0.054 µg/mL | 2.9 µg/mL | – | ≥ 20 fold
B13 | – | 0.057 µg/mL | 1.8 µg/mL | – | ≥ 20 fold
B14 | – | 0.21 µg/mL | 0.068 µg/mL | – | –
B15 | < 20 ng/mL | 0.018 µg/mL | 2.4 µg/mL | – | ≥ 20 fold
B16 | – | 3.6 µg/mL | 2.3 µg/mL | – | –
B17 | – | 0.45 µg/mL | 0.81 µg/mL | – | –
